Where two headings read alike, the source gives them in different places.
Legend:
[1] = target: T1, recombinant mouse IL-17A (SEQ ID NO: 83) (mouse, UniProt Q62386 26-158); assay: SPR (Biacore), captured antibody, antigen as analyte
T1 construct: also called mIL-17A; rmIL-17A
T1 sequence: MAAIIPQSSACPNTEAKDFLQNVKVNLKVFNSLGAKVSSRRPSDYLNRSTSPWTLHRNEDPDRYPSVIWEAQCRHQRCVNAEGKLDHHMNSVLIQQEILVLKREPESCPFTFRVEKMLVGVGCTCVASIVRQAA

[2] = target: T2, recombinant human IL-17A/F heterodimer (human, UniProt Q16552 24-155; Q96PD4 31-163, limits assumed); assay: as above
T2 construct: heterodimer of an IL-17A subunit and an IL-17F subunit; also called huIL-17A/F; rhuIL-17A/F
T2 sequence (looked up) 1: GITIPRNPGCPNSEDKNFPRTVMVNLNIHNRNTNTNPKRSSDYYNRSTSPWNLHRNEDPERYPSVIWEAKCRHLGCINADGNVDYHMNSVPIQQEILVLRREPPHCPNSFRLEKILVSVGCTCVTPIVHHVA
T2 sequence (looked up) 2: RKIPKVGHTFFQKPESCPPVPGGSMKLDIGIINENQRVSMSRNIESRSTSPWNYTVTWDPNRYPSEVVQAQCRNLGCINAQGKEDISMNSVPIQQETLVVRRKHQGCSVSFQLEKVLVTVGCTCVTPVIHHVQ

[3] = target: T3, recombinant human IL-17A (SEQ ID NO: 78) (human, UniProt Q16552 24-155, limits assumed); assay: as above
T3 construct: homodimer; also called huIL-17A; hulL-17A
T3 sequence: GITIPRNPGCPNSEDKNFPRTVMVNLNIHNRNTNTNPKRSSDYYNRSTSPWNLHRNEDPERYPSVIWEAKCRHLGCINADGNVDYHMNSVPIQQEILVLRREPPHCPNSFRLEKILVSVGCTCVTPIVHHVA

[4] = target: T4, marmoset IL-17A (SEQ ID NO: 82) (marmoset monkey); assay: as above
T4 construct: also called marmIL-17A
T4 chain: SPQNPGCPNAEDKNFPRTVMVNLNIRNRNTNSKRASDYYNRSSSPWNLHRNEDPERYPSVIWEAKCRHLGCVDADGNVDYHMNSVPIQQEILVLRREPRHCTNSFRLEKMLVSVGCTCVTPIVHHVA

[5] = target: T5, recombinant mouse IL-17A/F (R&D Systems Cat#5390-IL) (mouse, UniProt Q62386 26-158; Q7TNI7 29-161, limits assumed); assay: as above
T5 construct: bought heterodimer; also called mIL-17A/F; rmIL-17A/F
T5 sequence (looked up) 1: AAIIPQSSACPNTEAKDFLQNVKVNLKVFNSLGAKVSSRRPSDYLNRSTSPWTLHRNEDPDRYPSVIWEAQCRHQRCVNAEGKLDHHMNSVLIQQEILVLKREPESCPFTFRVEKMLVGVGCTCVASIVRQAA
T5 sequence (looked up) 2: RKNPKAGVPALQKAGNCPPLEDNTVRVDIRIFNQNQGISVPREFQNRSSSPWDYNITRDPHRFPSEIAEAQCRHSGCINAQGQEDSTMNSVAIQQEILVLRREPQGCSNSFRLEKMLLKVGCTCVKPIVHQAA

[6] = target: T6, recombinant cynomolgus IL-17A (SEQ ID NO: 79) (cynomolgus monkey, UniProt Q16552 24-155 (human entry), limits assumed); assay: as above
T6 construct: also called cynoIL-17A; cyno IL-17A
T6 chain: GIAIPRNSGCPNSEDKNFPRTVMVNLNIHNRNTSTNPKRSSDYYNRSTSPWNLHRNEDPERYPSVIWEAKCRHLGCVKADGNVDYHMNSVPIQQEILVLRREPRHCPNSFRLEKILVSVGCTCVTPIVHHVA

[7] = target: T7, recombinant rat IL-17A (SEQ ID NO: 85) (rat, UniProt Q61453 18-150); assay: as above
T7 construct: also called rratIL-17A; rIL-17A
T7 sequence: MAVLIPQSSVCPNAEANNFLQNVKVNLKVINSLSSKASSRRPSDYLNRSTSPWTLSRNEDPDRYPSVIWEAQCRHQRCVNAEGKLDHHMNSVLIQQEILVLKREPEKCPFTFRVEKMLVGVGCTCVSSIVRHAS

[8] = target: T8, human IL-17A (construct not stated) (human, UniProt Q16552 24-155, limits assumed); assay: cell-based or functional assay
T8 sequence: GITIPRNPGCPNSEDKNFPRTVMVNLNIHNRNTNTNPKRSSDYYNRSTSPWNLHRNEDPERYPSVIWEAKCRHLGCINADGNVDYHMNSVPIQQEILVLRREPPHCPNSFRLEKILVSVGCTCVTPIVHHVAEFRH

[9] = target: T9, recombinant human EGF (Sigma Cat#E9644) (human, UniProt P01133 971-1023); assay: ELISA, coated cytokine, Ab 10 µg/ml;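 also: antibodies incubated 3 h at room temperature on the coated wells, binding detected with alkaline phosphatase-conjugated anti-IgG secondary antibodies matching the species of each test antibody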
T9 construct: also called huEGF
T9 sequence (P01133 971-1023 limits assumed): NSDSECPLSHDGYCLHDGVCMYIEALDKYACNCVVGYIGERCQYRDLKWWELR

[10] = target: T8, human IL-17A (construct not stated); assay: cell-based or functional assay; remark: listed apart in the source
[11] = target: T1, recombinant mouse IL-17A (SEQ ID NO: 83); assay: SPR (Biacore), captured antibody, antigen as analyte; remark: listed apart in the source
[12] = target: T2, recombinant human IL-17A/F heterodimer; assay: as above; remark: listed apart in the source
[13] = target: T3, recombinant human IL-17A (SEQ ID NO: 78); assay: as above; remark: listed apart in the source
[14] = target: T5, recombinant mouse IL-17A/F (R&D Systems …); assay: as above; remark: listed apart in the source
[15] = target: T6, recombinant cynomolgus IL-17A (SEQ ID …); assay: as above
[16] = target: T7, recombinant rat IL-17A (SEQ ID NO: 85); assay: as above; remark: listed apart in the source

B1: XAB4 (antibody, human IgG1, kappa, V domains shown)
VH: EVQLVESGGDLVQPGGSLRLSCAASGFTFSSYWMSWVRQAPGKGLEWVANIKQDGSEKYYVDSVKGRFTISRDNAKNSLYLQMNSLRAEDTAVYYCARDRGSLYYWGQGTLVTVSS
VL: AIQLTQSPSSLSASVGDRVTITCRPSQGINWELAWYQQKPGKAPKLLIYDASSLEQGVPSRFSGSGSGTDFTLTISSLQPEDFATYYCQQFNSYPLTFGGGTKVEIKR
notes: also called MB435 N56Q
- Kd [1]: 0.16 nM
- Kd [2]: < 0.011 nM
- Kd [3]: 0.0057 nM
- Kd [4]: 0.018 nM
- Kd [5]: 0.26 nM
- Kd [6]: 0.031 nM
- Kd [7]: 0.084 nM
- EC50, in vitro neutralization activity, T = 0 weeks [8]: 0.048 µg/mL
- EC50, in vitro neutralization activity, T = 4 weeks at pH 8, 40°C (forced deamidation) [8]: 47 ng/ml
- O.D. [9]: 0.126 O.D.

B2: XAB1 (antibody, human IgG1, kappa, V domains shown)
VH: EVQLVESGGDLVQPGGSLRLSCAASGFTFSSYWMSWVRQAPGKGLEWVANIKQDGSEKYYVDSVKGRFTISRDNAKNSLYLQMNSLRAEDTAVYYCARDRGSLYYWGQGTLVTVSS
VL: AIQLTQSPSSLSASVGDRVTITCRPSQGIISALAWYQQKPGKAPKLLIYDASSLENGVPSRFSGSGSGTDFTLTISSLQPEDFATYYCQQFNSYPLTFGGGTKVEIKR
notes: human IgG1/kappa monoclonal antibody; also called parental XAB1; XAB1 IgG
- IC50, in vitro neutralization, Hu IL-6 sec [10]: 4 nM
- IC50, in vitro neutralization, Hu IL-8 sec [10]: 3 nM
- Kd [11]: 0.353 nM
- koff [11]: 0.000143 s⁻¹
- Kd [12]: 1.48 nM
- koff [12]: 0.00134 s⁻¹
- Kd [13]: 0.0403 nM
- koff [13]: 9.39e-05 s⁻¹
- Kd [14]: 5.09 nM
- koff [14]: 0.000955 s⁻¹
- Kd [15]: 0.526 nM
- koff [15]: 0.000113 s⁻¹
- Kd [16]: 0.301 nM
- koff [16]: 0.000164 s⁻¹
- O.D. [9]: 0.062 O.D.

Reference: US20180194839A1 (Novartis, published 2018)
